Patent publication US20090074782A1 (ONCOMED PHARMACEUTICALS, published 2009)

T1: FLAG-LGR5-CD4™ (human, UniProt O75473 22-564)
T1 construct: domain: transmembrane domain; Transiently expressed on HEK 293 cells together with GFP; also called variant cell-surface LGR5 protein; cell-associated LGR5 construct; not shown: N-terminal FLAG tag; transmembrane domain of CD4
T1 sequence: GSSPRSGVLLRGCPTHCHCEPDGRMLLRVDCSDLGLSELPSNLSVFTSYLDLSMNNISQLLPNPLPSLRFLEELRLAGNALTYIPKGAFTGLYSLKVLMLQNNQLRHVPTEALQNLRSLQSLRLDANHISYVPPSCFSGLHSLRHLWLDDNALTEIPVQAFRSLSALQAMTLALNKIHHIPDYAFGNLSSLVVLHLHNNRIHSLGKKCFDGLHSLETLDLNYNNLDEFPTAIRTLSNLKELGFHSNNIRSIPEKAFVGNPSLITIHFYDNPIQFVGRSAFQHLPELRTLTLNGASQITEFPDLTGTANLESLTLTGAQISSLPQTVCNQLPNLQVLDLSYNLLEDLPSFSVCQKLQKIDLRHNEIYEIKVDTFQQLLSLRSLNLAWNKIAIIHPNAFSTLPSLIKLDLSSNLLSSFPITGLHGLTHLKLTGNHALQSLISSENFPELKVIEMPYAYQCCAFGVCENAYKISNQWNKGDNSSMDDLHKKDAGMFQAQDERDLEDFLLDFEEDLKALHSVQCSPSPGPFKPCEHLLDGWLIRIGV

B1: RSPO1-CD4™ (ligand)
chain: SRGIKGKRQRRISAEGSQACAKGCELCSEVNGCLKCSPKLFILLERNDIRQVGVCLPSCPPGYFDARNPDMNKCIKCKIEHCEACFSHNFCTKCKEGLYLHKGRCYPACPEGSSAANGTMECSSPAQCEMSEWSPWGPCSKKQQLCGFRRGSEERTRRVLHAPVGDHAACSDTKETRRCTVRRVPCPEGQKRRKGGQGRRENANRNLARKESKEAGAGSRRRKGQQQQQQQGTVGPLTSAGPA
notes: domain: transmembrane domain; Transiently expressed on HEK 293 cells together with GFP; also called cell-surface RSPO1; RSPO1-CD4TM; not shown: transmembrane domain of CD4

How the values were obtained:
RSPO1-CD4™ = target: B1; test: FACS, Fc fusion on HEK 293 cells transfected with RSPO1-CD4™ and GFP
Experimental: (§1) To determine the mechanism by which RSPO1 activates beta-catenin signaling, FACS analysis was used to assess binding between RSPO1 and LGR5. In certain embodiments, binding between soluble LGR5 and cell-surface RSPO1 was determined. A cell-surface RSPO1 protein was generated by ligating full-length human RSPO1 to the transmembrane domain of CD4 using standard recombinant DNA techniques (RSPO1-CD4™). HEK 293 cells were transiently transfected RSPO1-CD4™ and GFP. After 48 hours, cells were suspended in ice cold PBS containing 2% FCS and then incubated on ice in the presence of LGR5-Fc, LRP6-ECD-Fc (containing the extracellular domain of human LRP6 fused to an Fc domain), LRP6E1-2-Fc (containing amino acids 1-629 of human LRP6 fused to an Fc domain), or various FZD-Fc constructs, including FZD1-10. […] Only a weak interaction between RSPO1 and the WNT co-receptor LRP6 was detected.

FZD7-Fc = FZD7-Fc (UniProt O75084 33-170); test: as above
Experimental: as §1

FZD1-Fc = target: T2, FZD1-Fc (UniProt Q9UP38 87-237); test: as above
T2 construct: One of the 'various FZD-Fc constructs, including FZD1-10'; not shown: Fc
Experimental: as §1

FZD2-Fc = FZD2-Fc (UniProt Q14332 24-159); test: as above
Experimental: as §1

FLAG-LGR5-CD4™ = target: T1, FLAG-LGR5-CD4™; test: FACS, Fc fusion on HEK 293 cells transfected with FLAG-LGR5-CD4™ and GFP, with heparin
Experimental: In certain embodiments, binding between soluble RSPO1 and cell-surface LGR5 was determined. A variant cell-surface LGR5 protein was generated by ligating amino acids 22-564 of LGR5 to an N-terminal FLAG tag and to the transmembrane domain of CD4 using standard recombinant DNA techniques (FLAG-LGR5-CD4™). HEK 293 cells were transiently transfected with FLAG-LGR5-CD4™ and GFP. After 48 hours, cells were suspended in ice cold PBS containing 2% FCS and heparin and then incubated on ice in the presence of RSPO1-Fc, FZD8-Fc, or a FLAG antibody as a positive control.

| binding result (RSPO1-CD4™) | Binder | also measured |
| --- | --- | --- |
| no binding | FZD10-Fc (Fc fusion, UniProt Q9ULW2 21-154, looked up, One of the 'various FZD-Fc constructs, including FZD1-10'; also called soluble FZD10; not shown: Fc) ISSMDMERPGDGKCQPIEIPMCKDIGYNMTRMPNLMGHENQREAAIQLHEFAPLVEYGCHGHLRFFLCSLYAPMCTEQVSTPIPACRVMCEQARLKCSPIMEQFNFKWPDSLDCRKLPNKNDPNYLCMEAPNNG | – |
| no binding | FZD3-Fc (Fc fusion, UniProt Q9NPG1 23-143, looked up, One of the 'various FZD-Fc constructs, including FZD1-10'; not shown: Fc) HSLFSCEPITLRMCQDLPYNTTFMPNLLNHYDQQTAALAMEPFHPMVNLDCSRDFRPFLCALYAPICMEYGRVTLPCRRLCQRAYSECSKLMEMFGVPWPEDMECSRFPDCDEPYPRLVDL | – |
| no binding | FZD5-Fc (Fc fusion, UniProt Q13467 27-157, looked up, One of the 'various FZD-Fc constructs, including FZD1-10'; not shown: Fc) ASKAPVCQEITVPMCRGIGYNLTHMPNQFNHDTQDEAGLEVHQFWPLVEIQCSPDLRFFLCSMYTPICLPDYHKPLPPCRSVCERAKAGCSPLMRQYGFAWPERMSCDRLPVLGRDAEVLCMDYNRSEATT | – |
| no binding | FZD9-Fc (Fc fusion, UniProt O00144 23-159, looked up, One of the 'various FZD-Fc constructs, including FZD1-10'; not shown: Fc) LEIGRFDPERGRGAAPCQAVEIPMCRGIGYNLTRMPNLLGHTSQGEAAAELAEFAPLVQYGCHSHLRFFLCSLYAPMCTDQVSTPIPACRPMCEQARLRCAPIMEQFNFGWPDSLDCARLPTRNDPHALCMEAPENA | – |
| no binding | FZD6-Fc (Fc fusion, UniProt O60353 19-146, looked up, One of the 'various FZD-Fc constructs, including FZD1-10'; not shown: Fc) HSLFTCEPITVPRCMKMAYNMTFFPNLMGHYDQSIAAVEMEHFLPLANLECSPNIETFLCKAFVPTCIEQIHVVPPCRKLCEKVYSDCKKLIDTFGIRWPEELECDRLQYCDETVPVTFDPHTEFLGP | – |
| no binding | FZD4-Fc (Fc fusion, UniProt Q9ULV1 40-170, looked up, One of the 'various FZD-Fc constructs, including FZD1-10'; not shown: Fc) EEERRCDPIRISMCQNLGYNVTKMPNLVGHELQTDAELQLTTFTPLIQYGCSSQLQFFLCSVYVPMCTEKINIPIGPCGGMCLSVKRRCEPVLKEFGFAWPESLNCSKFPPQNDHNHMCMEGPGDEEVPLP | – |
| – | B1 | binding result (FZD7-Fc): no binding; binding result (FZD1-Fc): no binding; binding result (FZD2-Fc): no binding |
| no binding | FZD8-Fc (Fc fusion, UniProt Q9H461 28-158, looked up, One of the 'various FZD-Fc constructs, including FZD1-10'; also used against FLAG-LGR5-CD4™ cells; also called soluble FZD8; not shown: Fc) ASAKELACQEITVPLCKGIGYNYTYMPNQFNHDTQDEAGLEVHQFWPLVEIQCSPDLKFFLCSMYTPICLEDYKKPLPPCRSVCERAKAGCAPLMRQYGFAWPDRMRCDRLPEQGNPDTLCMDYNRTDLTT | binding result (FLAG-LGR5-CD4™): no binding |
